Blank lines part the entries; values can stand above or below the molecule they belong to.
Key:
[1] = target: MUC5B C-terminal construct consisting of D4-B-C-CK (CT5B) (human) (UniProt Q9HC84); experiment: SEC-MALS; recombinant CT5B on Superose 6 10/300 GL, 0.2 M NaCl, pH 7.4; step: monomer to disulfide-linked dimer
[2] = target: MUC5B C-terminal construct consisting of D4-B-C-CK (CT5B) (human) (UniProt Q9HC84); experiment: AUC; sedimentation velocity; CT5B with 5 mM CaCl2 overnight at 4 °C, 150 mM NaCl, 25 mM HEPES pH 7.4 or 25 mM MES pH 6 or pH 5; tests the step dimer to higher multimers
[3] = target: MUC5B C-terminal construct consisting of D4-B-C-CK (CT5B) (human) (UniProt Q9HC84); experiment: SEC-MALS; CT5B incubated overnight at 4 °C in 5 mM CaCl2 or 5 mM EGTA, 150 mM NaCl, 25 mM HEPES pH 7.4 or 25 mM MES pH 6 or 5; Superose 6 10/300 GL at room temperature; tests the step dimer to higher multimers
[4] = target: T1, MUC5B C-terminal construct consisting of D4-B-C-CK (CT5B) (human, UniProt Q9HC84 4955-5762); experiment: SPR; single cycle kinetics, pH 6; CT5B immobilised on CM5 chip, NT5B 0, 5, 10, 15, 20 and 40 nM, HBS with 5 mM CaCl2 and 0.05% Tween 20; 1:1 Langmuir model; details: both partners purified
T1 construct: MUC5B, human, UniProtKB Q9HC84, D4-B-C-CK domains, residues 4955-5762; Mainly a disulfide-linked dimer with a small proportion of monomer; The dimer was used for cryo-EM, SPR (amine-coupled to a CM5 chip) and the homotypic tests; also called C-terminal dimerization domain of MUC5B; dimeric CT5B
T1 sequence (looked up): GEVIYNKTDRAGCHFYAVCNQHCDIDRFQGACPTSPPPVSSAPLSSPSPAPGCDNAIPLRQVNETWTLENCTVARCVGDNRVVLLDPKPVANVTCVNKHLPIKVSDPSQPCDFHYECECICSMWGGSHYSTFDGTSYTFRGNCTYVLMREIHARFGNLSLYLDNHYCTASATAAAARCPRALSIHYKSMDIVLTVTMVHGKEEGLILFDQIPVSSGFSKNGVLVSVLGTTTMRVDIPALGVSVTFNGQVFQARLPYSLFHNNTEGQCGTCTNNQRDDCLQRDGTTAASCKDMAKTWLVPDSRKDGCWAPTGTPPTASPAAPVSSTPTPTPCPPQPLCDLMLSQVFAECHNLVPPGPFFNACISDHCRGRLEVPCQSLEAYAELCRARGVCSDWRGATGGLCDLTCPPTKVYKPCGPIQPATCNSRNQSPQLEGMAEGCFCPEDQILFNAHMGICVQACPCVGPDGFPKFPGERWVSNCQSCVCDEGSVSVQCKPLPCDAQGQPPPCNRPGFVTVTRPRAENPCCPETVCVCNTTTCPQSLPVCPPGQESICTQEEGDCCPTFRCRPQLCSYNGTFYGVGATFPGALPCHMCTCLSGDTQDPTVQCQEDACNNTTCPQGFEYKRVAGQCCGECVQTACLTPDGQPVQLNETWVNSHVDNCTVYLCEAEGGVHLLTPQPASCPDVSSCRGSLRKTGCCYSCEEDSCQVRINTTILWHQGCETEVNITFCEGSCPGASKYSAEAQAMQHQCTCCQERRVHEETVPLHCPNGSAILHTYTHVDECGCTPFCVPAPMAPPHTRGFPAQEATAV

[5] = target: T1, MUC5B C-terminal construct consisting …; experiment: SPR; single cycle kinetics, pH 7.4; CT5B immobilised on CM5 chip, NT5B 0, 5, 10, 15, 20 and 40 nM, HBS with 5 mM CaCl2 and 0.05% Tween 20; 1:1 Langmuir model; details: both partners purified
[6] = target: T1, MUC5B C-terminal construct consisting …; experiment: MST; pH 6; 2.5 nM RED-NHS labelled NT5B, CT5B serially diluted 1:1 (starting concentration 6 μM); 25 mM HEPES, 150 mM NaCl, 0.05% Tween 20, with 5 mM CaCl2 or 5 mM EGTA; room temperature; KD model; details: both partners purified
[7] = target: T1, MUC5B C-terminal construct consisting …; experiment: MST; pH 7.4; 2.5 nM RED-NHS labelled NT5B, CT5B serially diluted 1:1 (starting concentration 6 μM); 25 mM HEPES, 150 mM NaCl, 0.05% Tween 20, with 5 mM CaCl2 or 5 mM EGTA; room temperature; KD model; details: both partners purified

stoichiometry N [1]: 2 | stoichiometry N [2]: 2 | stoichiometry N [3]: 2
Molecule: MUC5B C-terminal construct consisting of D4-B-C-CK (CT5B) (from UniProt Q9HC84 4955-5762) (domain or fragment)

Kd [4]: ~1 nM | Kd [5]: ~3 nM | binding response, fold lower than at pH 6 [5]: 5 fold | Kd [6]: 3 ± 1.4 nM | Kd [7]: 7.4 ± 1.5 nM
B1: MUC5B N-terminal construct consisting of D1-D2-D′-D3 (NT5B) (domain or fragment)
chain: QGPVEPSWENAGHTMDGGAPTSSPTRRVSFVPPVTVFPSLSPLNPAHNGRVCSTWGDFHYKTFDGDVFRFPGLCNYVFSEHCRAAYEDFNVQLRRGLVGSRPVVTRVVIKAQGLVLEASNGSVLINGQREELPYSRTGLLVEQSGDYIKVSIRLVLTFLWNGEDSALLELDPKYANQTCGLCGDFNGLPAFNEFYAHNARLTPLQFGNLQKLDGPTEQCPDPLPLPAGNCTDEEGICHRTLLGPAFAECHALVDSTAYLAACAQDLCRCPTCPCATFVEYSRQCAHAGGQPRNWRCPELCPRTCPLNMQHQECGSPCTDTCSNPQRAQLCEDHCVDGCFCPPGTVLDDITHSGCLPLGQCPCTHGGRTYSPGTSFNTTCSSCTCSGGLWQCQDLPCPGTCSVQGGAHISTYDEKLYDLHGDCSYVLSKKCADSSFTVLAELRKCGLTDNENCLKAVTLSLDGGDTAIRVQADGGVFLNSIYTQLPLSAANITLFTPSSFFIVVQTGLGLQLLVQLVPLMQVFVRLDPAHQGQMCGLCGNFNQNQADDFTALSGVVEATGAAFANTWKAQAACANARNSFEDPCSLSVENENYARHWCSRLTDPNSAFSRCHSIINPKPFHSNCMFDTCNCERSEDCLCAALSSYVHACAAKGVQLSDWRDGVCTKYMQNCPKSQRYAYVVDACQPTCRGLSEADVTCSVSFVPVDGCTCPAGTFLNDAGACVPAQECPCYAHGTVLAPGEVVHDEGAVCSCTGGKLSCLGASLQKSTGCAAPMVYLDCSNSSAGTPGAECLRSCHTLDVGCFSTHCVSGCVCPPGLVSDGSGGCIAEEDCPCVHNEATYKPGETIRVDCNTCTCRNRRWECSHRLCLGTCVAYGDGHFITFDGDRYSFEGSCEYILAQDYCGDNTTHGTFRIVTENIPCGTTGTTCSKAIKLFVESYELILQEGTFKAVARGPGGDPPYKIRYMGIFLVIETHGMAVSWDRKTSVFIRLHQDYKGRVCGLCGNFDDNAINDFATRSRSVVGDALEFGNSWKLSPSCPDALAPKDPCTANPFRKSWAQKQCSILHGPTFAACRSQVDSTKYYEACVNDACACDSGGDCECFCTAVAAYAQACHDAGLCVSWRTPDTCPLFCDFYNPHGGCEWHYQPCGAPCLKTCRNPSGHCLVDLPGLEGCYPKCPPSQPFFNEDQMKCVAQCGCYDKDGNYYDVGARVPTAENCQSCNCTPSGIQCA
modifications: RED-NHS (amine reactive) fluorescent dye, in the MST experiments only

Reference: publication PMC6851316, “The C-terminal dimerization domain of the respiratory mucin MUC5B functions in mucin stability and intracellular packaging before secretion” (The Journal of Biological Chemistry, 2019)
